This passage reports Kd, koff and kon results from paper PMC9896449.

Test [1] deals with ShAb01H02K (knob-in-hole heterodimer of ShAb01-Fc and ShAb02-Fc) (nurse shark (Ginglymostoma cirratum)). Kind of test: BLI. (In BLI a coated tip is dipped into the sample, and binding shifts an interference pattern.)
For test [2], the target named is BiShAb0201 (ShAb02 VNAR - (GGGGS)5 - ShAb01 VNAR - human IgG1 Fc) (nurse shark (Ginglymostoma cirratum)). The test is described as follows: BLI.

By Kd is commonly meant the concentration at which binding is half-saturated. A lower Kd goes with a tighter complex. By koff is commonly meant the first-order rate constant of dissociation. Read a high koff as fast dissociation. What is called kon is the second-order rate constant of association. Higher therefore signals fast association.

For the substance “SARS-CoV-2 RBD B.1.1.529, Omicron BA.1 (from UniProt P0DTC2 331-527) (domain or fragment)”, in test [1], the Kd amounted to 24.5 nM, the koff stood at 0.00175 s⁻¹ and the kon is 71300 M⁻¹ s⁻¹. In test [2], this substance registered a dissociation constant (Kd) of 15.1 nM, a koff of 0.00154 s⁻¹ and a kon of 102000 M⁻¹ s⁻¹.

In test [1], “SARS-CoV-2 RBD B.1.1.529.2, Omicron BA.2 (from UniProt P0DTC2 331-527) (domain or fragment)” had a Kd of 24.1 nM, an off-rate constant (koff) of 0.00186 s⁻¹ and a kon of 77000 M⁻¹ s⁻¹. In test [2], the Kd amounted to 33.2 nM, the koff was determined as 0.000749 s⁻¹ and the kon turned out to be 22600 M⁻¹ s⁻¹.

In test [1], “SARS-CoV-2 RBD B.1.1.529.2.12.1, Omicron BA.2.12.1 (from UniProt P0DTC2 331-527) (domain or fragment)” yielded a Kd of 17.4 nM, an off-rate constant (koff) of 0.00171 s⁻¹ and a kon of 98500 M⁻¹ s⁻¹. In test [2], this substance registered a Kd of 46.9 nM, a koff of 0.000922 s⁻¹ and a kon of 19700 M⁻¹ s⁻¹.

With “SARS-CoV-2 RBD Omicron BA.4/5 (from UniProt P0DTC2 331-527) (domain or fragment)”, in test [1], the Kd was found to be 5.6 nM, the koff was determined as 0.000692 s⁻¹ and the kon stood at 123000 M⁻¹ s⁻¹. Further, in test [2], the Kd is 14.9 nM, the off-rate (koff) was 0.000767 s⁻¹ and the kon was 51500 M⁻¹ s⁻¹.
